Columns and labels:
SahH [1] = molecular target: T1, SahH (Psilocybe cubensis, UniProt A0ACB8GS59); assay: inhibition of SAH hydrolysis; type: biochemical; conditions: hydrolytic direction
T1 sequence (A0ACB8GS59 1-430): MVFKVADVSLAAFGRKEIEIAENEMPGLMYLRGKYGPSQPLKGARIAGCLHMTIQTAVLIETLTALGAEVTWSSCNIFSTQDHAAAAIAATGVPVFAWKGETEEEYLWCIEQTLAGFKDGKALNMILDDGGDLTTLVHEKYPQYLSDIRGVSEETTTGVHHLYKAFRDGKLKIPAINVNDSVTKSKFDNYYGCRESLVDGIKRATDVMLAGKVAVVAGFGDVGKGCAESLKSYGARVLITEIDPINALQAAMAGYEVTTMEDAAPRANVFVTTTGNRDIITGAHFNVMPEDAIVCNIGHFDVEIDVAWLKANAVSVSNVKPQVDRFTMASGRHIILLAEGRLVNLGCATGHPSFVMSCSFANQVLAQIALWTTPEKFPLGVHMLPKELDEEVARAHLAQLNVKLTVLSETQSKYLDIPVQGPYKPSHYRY

SahH [2] = molecular target: T1, SahH; assay: Ellman's reagent; type: biochemical; conditions: hydrolytic direction, 100 μM NAD+, pH 7.8, 34 °C
PsiM = PsiM (Psilocybe cubensis, UniProt P0DPA9); assay: UHPLC-MS quantification of baeocystin and psilocybin; type: biochemical; conditions: 3 mM SAM, 1 mM norbaeocystin, 1 μM PsiM, pH 8.0, 25 °C; competitive
purified protein [3] = substrate: Nc1ncnc2c1ncn2[C@@H]1O[C@H](COP(=O)(O)OP(=O)(O)OP(=O)(O)O)[C@@H](O)[C@H]1O; assay: purified protein; conditions: adenosine co-substrate, 10 mM MgCl2, pH 7.8, 30 °C
purified protein [4] = substrate: Nc1ncnc2c1ncn2[C@@H]1O[C@H](CO)[C@@H](O)[C@H]1O; assay: purified protein
purified protein [5] = substrate: N[C@@H](CCS)C(=O)O; assay: purified protein; conditions: synthetic direction, co-substrate adenosine
[6] = ATP co-substrate, 10 mM MgCl2, pH 7.8, 30 °C
[7] = synthetic direction, co-substrate L-homocysteine

With `Nc1ncnc2c1ncn2[C@@H]1O[C@H](CO)[C@@H](O)[C@H]1O` [Ado] the inhibition (SahH [1]; product inhibition) was “SAH hydrolysis is strongly inhibited by elevated Ado concentrations”.

In the case of `Nc1ncnc2[nH]cnc12` [Ade], the inhibition (SahH [1]; tenfold excess over SAH) is reported as “to a lower extent—by tenfold excess of Ade over the SAH substrate”.

`Nc1ncnc2c1ncn2[C@@H]1O[C@H](CSCC[C@H](N)C(=O)O)[C@@H](O)[C@H]1O` [SAH] was tested, and the Km (SahH [2]) was 57.2 µM and the “inhibition at 1-16 mM” value (PsiM) was “SAH competitively inhibited PsiM′s activity in a concentration‐dependent manner”.

B1: AdoK (Psilocybe cubensis) (protein)
chain: MSAPSYSLFCMGNPLLDMQVRNGEQLLEKYGLKANDAILADEKQSEIYDELVKEHQVTYVAGGAAQNAARGAAYILPPGSVVYTGAVGDDELAEQLKAANKREGLDQVYQVKKGEKTGACAVVITGHHRSLVTTLRVAEKFEKSHLSSPEVAPLVENAKFFYIEGYFLTHGVESALELSSKASAAGKTFVMNLSAPFIAQFFGEQLNQILPHTDIIIGNEAEAEAWATAHNYASTTDLASIAKQIALLPKSNPARPRVVVFTHGAQSTVLVSADRPDEARVFAVDVLADDKIVDTNGAGDAFAGGFVGALVAGKDLEGAVLAGHALARQCVQQVGPQYPWPKVDIL
With B1 the Km (purified protein [3]) was 11.6 µM, the kcat (purified protein [3]) was 1400 s⁻¹ and the kcat/Km (purified protein [3]) was 1.2e+08 M⁻¹ s⁻¹. The Km (purified protein [4]; [6]) was 33.6 µM, the kcat (purified protein [4]; [6]) was 1400 s⁻¹ and the kcat/Km (purified protein [4]; [6]) was 4.2e+07 M⁻¹ s⁻¹.

B2: SahH (Psilocybe cubensis) (protein)
chain: T1 sequence (A0ACB8GS59 1-430)
B2 showed a Km (purified protein [5]) of 19.8 µM, a kcat (purified protein [5]) of 1.8 s⁻¹ and a kcat/Km (purified protein [5]) of 91000 M⁻¹ s⁻¹. For the same molecule, the Km (purified protein [4]; [7]) was 56.7 µM, the kcat (purified protein [4]; [7]) was 1.8 s⁻¹ and the kcat/Km (purified protein [4]; [7]) was 31000 M⁻¹ s⁻¹.
